From patent US20230140224A1 (APRILBIO, published 2023)

Biological target: T1, human serum albumin (human, UniProt P02768 25-609)
T1 construct: also called HSA; human albumin
Experiment: ELISA, albumin coated on plate, Fab in solution

T1 sequence (P02768 25-609 limits assumed): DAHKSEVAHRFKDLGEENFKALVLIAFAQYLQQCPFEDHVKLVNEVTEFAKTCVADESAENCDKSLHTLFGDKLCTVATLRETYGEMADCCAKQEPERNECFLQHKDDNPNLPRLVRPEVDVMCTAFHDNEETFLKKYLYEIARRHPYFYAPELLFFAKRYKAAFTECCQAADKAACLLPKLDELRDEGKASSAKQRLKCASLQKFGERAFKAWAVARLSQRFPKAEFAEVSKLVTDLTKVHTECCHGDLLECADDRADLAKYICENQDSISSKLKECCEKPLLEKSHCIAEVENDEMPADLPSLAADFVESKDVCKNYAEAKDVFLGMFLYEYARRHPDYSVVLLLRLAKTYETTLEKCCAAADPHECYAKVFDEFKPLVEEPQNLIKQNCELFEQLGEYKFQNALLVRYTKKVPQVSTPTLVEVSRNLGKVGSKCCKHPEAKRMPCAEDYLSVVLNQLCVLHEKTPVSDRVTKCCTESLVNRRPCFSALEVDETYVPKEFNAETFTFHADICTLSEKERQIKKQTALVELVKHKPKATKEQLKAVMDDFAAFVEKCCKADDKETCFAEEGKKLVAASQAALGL

- binding result: binds
B1: FL335 Fab antibody fragment (Fab, V domains shown)
VH: QVQLVQSGGGPVKPGGSLRLSCAASGFMFRAYSMNWVRQAPGKGLEWVSSISSSGRYIHYADSVKGRFTISRDNAKNSLYLQMNSLRAEDTAVYYCARETVMAGKALDYWGQGTLVTVSS
VL: DIVLTQSPGTLSLSPGETATLSCRASQSVGSNLAWYQQKPGQAPRLLIYGASTGATGVPARFSGSRSGTDFTLTITSLQPEDFATYYCQQYYSFLAKTFGQGTQLEIKR
notes: also called FL355 Fab antibody fragment; feline chimeric antibody fragment
